# Columns and labels:
# [1] = molecular target: T1, 人GPC-3-His(北京义翘神州生物) (human, UniProt P51654 25-559); experiment: affinity and kinetics of Table 2 (table not shown; method not named here, taken as BLI of Example 3.2)
# T1 construct: Bought His-tagged protein, coupled to Ni-NTA sensors in the BLI assay; not shown: His tag
# [2] = molecular target: T1, 人GPC-3-His(北京义翘神州生物); experiment: BLI (ForteBio Octet), human GPC-3-His on Ni-NTA sensor, antibody 3.125-100 nM
# [3] = molecular target: T2, 人GPC-3抗原 (磷脂酰肌醇蛋白聚糖3, Glypican-3) (human, UniProt P51654 25-559, limits assumed); experiment: indirect ELISA, GPC-3 antigen coated at 0.2 μg/ml
# T2 construct: The immunogen was bought from Sino Biological (北京义翘神州生物); also called GPC-3蛋白
# [4] = molecular target: T1, 人GPC-3-His(北京义翘神州生物); experiment: BLI (ForteBio Octet), human GPC-3-His on Ni-NTA sensor
# [5] = molecular target: T2, 人GPC-3抗原 (磷脂酰肌醇蛋白聚糖3, Glypican-3); experiment: indirect ELISA on coated GPC-3, goat anti-human IgG-HRP detection
# [6] = molecular target: T2, 人GPC-3抗原 (磷脂酰肌醇蛋白聚糖3, Glypican-3); experiment: competition ELISA on coated GPC-3 (0.1 μg/ml), competitor GPC-3 antibody-HRP
# T1 sequence (P51654 25-559 limits assumed): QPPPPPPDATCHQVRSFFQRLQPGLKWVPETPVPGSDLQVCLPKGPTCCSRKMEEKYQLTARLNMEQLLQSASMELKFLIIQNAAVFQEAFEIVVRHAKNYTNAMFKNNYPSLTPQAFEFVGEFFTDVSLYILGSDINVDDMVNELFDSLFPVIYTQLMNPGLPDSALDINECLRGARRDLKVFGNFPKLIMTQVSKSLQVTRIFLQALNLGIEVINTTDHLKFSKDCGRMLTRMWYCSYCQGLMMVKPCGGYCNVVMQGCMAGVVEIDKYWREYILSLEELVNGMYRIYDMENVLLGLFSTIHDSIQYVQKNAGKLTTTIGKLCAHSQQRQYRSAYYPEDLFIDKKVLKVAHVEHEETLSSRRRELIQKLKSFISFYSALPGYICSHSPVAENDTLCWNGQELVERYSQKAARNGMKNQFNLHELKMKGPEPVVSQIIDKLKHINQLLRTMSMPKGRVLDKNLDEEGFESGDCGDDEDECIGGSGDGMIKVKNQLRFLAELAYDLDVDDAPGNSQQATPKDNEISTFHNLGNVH
# T2 sequence (P51654 25-559 limits assumed): as above
binder,measurement,setting,value
"人源化抗体AB13E3 (antibody, V domains shown, Humanized from GPC3#4 by CDR grafting; detected with goat anti-human IgG) VH: QVQLVQSGAEVKKPGASVKVSCKASGYTFTDYEMHWVKQAPGQGLEWIGAIDPQTGNTAFNQKFKGRVTLTRDKSSSTVYMELSSLRSEDTAVYYCTRFYSLTYWGQGTLVTVSS VL: DVLMTQSPLSLPVTLGQPASISCRSSQSIVHSNGNTYLQWYLQRPGQSPKLLIYKVSNRFSGVPDRFSGSGSGTYFTLKISRVEAEDVGVYYCFQGSHFPYAFGGGTKVEIK",Kd,[1],< 0.01 nM
"鼠单克隆抗体GPC3#4(杂交瘤细胞株DWX-1分泌) (antibody, V domains shown, Mouse antibody purified from hybridoma DWX-1; also called 鼠源抗体GPC3#4; 鼠单抗GPC3#4) VH: QVQLQQSGAELVRPGAPVTLSCKASGYTFTDYEMHWVKQTPVNGLEWIGAIDPQTGNTAFNQKFKGKAILTADKSSSTAYMEVRSLTSEGSAVYYCTRFYSLTYWGQGTLVTVSA VL: DVLMTQVPLSLPVSLGDQASISCRSSQSIVHSNGNTYLQWYLQKPGQSPKLLIYKVSNRFSGVPDRFSGSGSGTYFTLKISRVEAEDLGVYYCFQGSHFPYAFGGGTKLEIK",Kd,[2],0.00107 nM
same,koff,[2],1e-07 s⁻¹
same,kon,[2],624000 M⁻¹ s⁻¹
same,EC50,[3],~0.01 mg/L
same,Kd,[4],< 0.01 nM
"人源化抗体AB13E1 (antibody, V domains shown, Humanized from GPC3#4 by CDR grafting) VH: QVQLVQSGAEVKKPGASVKVSCKASGYTFTDYEMHWVRQAPGQGLEWMGIIDPQTGNTSYAQKFQGRVTMTRDTSTSTVYMELSSLRSEDTAVYYCTRFYSLTYWGQGTLVTVSS VL: DVVMTQSPLSLPVTLGQPASISCRSSQSIVHSNGNTYLNWFQQRPGQSPRRLIYKVSNRDSGVPDRFSGSGSGTDFTLKISRVEAEDVGVYYCFQGSHFPYAFGGGTKVEIK",Kd,[1],< 0.01 nM
"人源化抗体AB13E2 (antibody, V domains shown, Humanized from GPC3#4 by CDR grafting) VH: QVQLVQSGAEVKKPGASVKVSCKASGYTFTDYEMHWVRQAPGQGLEWIGAIDPQTGNTSYAQKFQGRVTMTRDTSTSTVYMELSSLRSEDTAVYYCTRFYSLTYWGQGTLVTVSS VL: DVVMTQSPLSLPVTLGQPASISCRSSQSIVHSNGNTYLNWFQQRPGQSPKLLIYKVSNRDSGVPDRFSGSGSGTDFTLKISRVEAEDVGVYYCFQGSHFPYAFGGGTKLEIK",Kd,[1],< 0.01 nM
"人源化抗体AB13E5 (antibody, V domains shown, Humanized from GPC3#4 by CDR grafting) VH: QVQLVQSGAEVKKPGASVTLSCKASGYTFTDYEMHWVRQAPGQGLEWMGIIDPQTGNTSYAQKFQGRVTMTRDTSTSTVYMELSSLRSEGSAVYYCTRFYSLTYWGQGTLVTVSS VL: DVVMTQSPLSLPVTLGDQASISCRSSQSIVHSNGNTYLNWFQQRPGQSPRRLIYKVSNRDSGVPDRFSGSGSGTDFTLKISRVEAEDVGVYYCFQGSHFPYAFGGGTKVEIK",Kd,[1],< 0.01 nM
"人源化抗体AB13E4 (antibody, V domains shown, Humanized from GPC3#4 by resurfacing; detected with goat anti-human IgG) VH: QVQLVQSGAEVVKPGASVKLSCKASGYTFTDYEMHWVKQTPGQGLEWIGAIDPQTGNTAFNQKFKGRATLTRDKSSSTAYMEVSSLRSEGTAVYYCTRFYSLTYWGQGTLVTVSS VL: DVLMTQSPLSLPVTLGQPASISCRSSQSIVHSNGNTYLQWYLQKPGQSPKLLIYKVSNRFSGVPDRFSGSGSGTYFTLKISRVEAEDVGVYYCFQGSHFPYAFGGGTKLEIK",EC50,[5],0.001 to 0.01 mg/L
same,Kd,[1],< 0.01 nM
same,EC50,[6],0.1 to 1 mg/L
